Biological target: Phosphatidylserine decarboxylase (PSD/PISD), purified
Assay: microscale thermophoresis (MST), fluorescently labeled purified SMAC, Monolith-NT115

Chain of Phosphatidylserine decarboxylase (PSD/PISD), purified (B1AKM7 whole entry): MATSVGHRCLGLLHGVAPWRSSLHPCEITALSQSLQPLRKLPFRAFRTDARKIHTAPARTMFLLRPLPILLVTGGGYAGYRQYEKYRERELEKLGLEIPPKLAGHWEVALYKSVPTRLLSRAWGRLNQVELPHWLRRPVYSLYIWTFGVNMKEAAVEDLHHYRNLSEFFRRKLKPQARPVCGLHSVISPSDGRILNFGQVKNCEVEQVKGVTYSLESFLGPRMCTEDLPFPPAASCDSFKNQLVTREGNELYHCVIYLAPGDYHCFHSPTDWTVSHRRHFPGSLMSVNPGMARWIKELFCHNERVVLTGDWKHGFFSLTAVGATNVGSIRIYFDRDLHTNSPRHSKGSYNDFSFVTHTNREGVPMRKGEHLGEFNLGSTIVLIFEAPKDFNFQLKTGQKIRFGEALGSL

In the case of “purified SMAC/Diablo (second mitochondria-derived activator of caspase/direct inhibitor of apoptosis-binding protein with low pI) (from UniProt Q9NR28 56-239)”, the Kd is reported as 100 nM.

Reference: patent US20210261965A1
